This note sets out measurements from paper PMC7618375, “Structure and Methyl-lysine Binding Selectivity of the HUSH Complex Subunit MPP8” (Journal of molecular biology, 2024).

No end group written: not given here. Me2 = dimethyl on the lysine side-chain amine

Data set [1] addresses T1, MPP8 chromodomain (CD, residues 55-116) (human, UniProt Q99549 55-116).
T1 construct: MPP8 (M-phase phosphoprotein 8), human, chromodomain, residues 55-116, UniProt Q99549; Cloned in pET15b with a TEV site (ENLYFQG) in place of the thrombin site; also called MPP8 CD; M-phase phosphoprotein 8 chromodomain; source: E. coli BL21 (DE3), purified (Ni-NTA, Mono Q, Superdex 75 SEC)
T1 sequence (looked up): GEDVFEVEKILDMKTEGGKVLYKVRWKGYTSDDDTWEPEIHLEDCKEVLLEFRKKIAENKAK
In words: ITC; 750 uM peptide in the syringe titrated into 50 uM MPP8 CD in the cell; 50 mM HEPES pH 7.4, 0.1 M NaCl, 0.5 mM TCEP, 25 °C; single-site model. As to conditions: both partners purified. For orientation: In ITC the heat of successive injections is recorded.

Data set [2] concerns the molecule itself. In words: crystal structure; MPP8 CTD, X-ray, 3.04 Å, eight chains in the asymmetric unit; crystals at 18 °C, PEG 4000/1,2,6-hexanetriol, pH 8.5.

What is called Kd is the free concentration of one partner at which half of the binding sites on the other are occupied at equilibrium, for simple one-to-one binding. Read a low Kd as higher affinity. As a reminder, the stoichiometry N is a count of units in the complex or per binding partner.

B1: Histone H3 peptide dimethylated at lysine 9 (peptide)
chain: TKQTARK(Me2)STGGK
Take B1: the affinity in data set [1], expressed as Kd, was 1.7 µM.

B2: MPP8 C-terminal domain (CTD, residues 547-860) (domain or fragment, human, UniProt Q99549 547-860, looked up)
chain: DFQKHLDGKDENFAATDAIPSNVLRDAVKNGDYITVKVALNSNEEYNLDQEDSSGMTLVMLAAAGGQDDLLRLLITKGAKVNGRQKNGTTALIHAAEKNFLTTVAILLEAGAFVNVQQSNGETALMKACKRGNSDIVRLVIECGADCNILSKHQNSALHFAKQSNNVLVYDLLKNHLETLSRVAEETIKDYFEARLALLEPVFPIACHRLCEGPDFSTDFNYKPPQNIPEGSGILLFIFHANFLGKEVIARLCGPCSVQAVVLNDKFQLPVFLDSHFVYSFSPVAGPNKLFIRLTEAPSAKVKLLIGAYRVQLQ
notes: MPP8 (M-phase phosphoprotein 8), human, C-terminal domain (ankyrin repeats and PINIT-like domain), residues 547-860, UniProt Q99549; residues 547-562 disordered in the crystal, model spans 563-860; also called MPP8 CTD; source: E. coli BL21 (DE3), purified (Ni-NTA, thrombin cleavage, Resource Q, Superdex 200 SEC); not shown: His6, N-terminal, cleaved
B2: the “stoichiometry N” value in data set [2] worked out at 2.
